Laboratory results from the Immune Epitope Database (IEDB).

Columns and labels:
HLA-A*02:01 [1] = assay: IEDB peptide-MHC binding, purified MHC/competitive/radioactivity; filed as Kd, often an IC50 or EC50 that approximates it; ≥ and ≤ were set here for values at or beyond the usual limits of such assays
HLA-A*26:01 [2] = assay: as above; settings: source organism: Dengue virus 2 Jamaica/1409/1983
HLA-A*02:17 = assay: as above
HLA-A*02:06 = assay: as above
HLA-A*68:02 [3] = assay: as above
HLA-A*02:03 [4] = assay: as above
HLA-A*02:19 = assay: IEDB peptide-MHC binding, purified MHC/direct/fluorescence; filed as Kd, often an IC50 or EC50 that approximates it; ≥ and ≤ were set here for values at or beyond the usual limits of such assays; settings: source organism: Orthohantavirus negraense
HLA-A*24:03 = assay: as above; settings: source organism: Orthohantavirus negraense
HLA-A*02:12 = assay: as above; settings: source organism: Orthohantavirus negraense
HLA-A*29:02 = assay: as above; settings: source organism: Orthohantavirus negraense
HLA-A*02:03 [5] = assay: as above; settings: source organism: Orthohantavirus negraense
HLA-A*02:16 = assay: as above; settings: source organism: Orthohantavirus negraense
HLA-B*18:01 [6] = assay: IEDB peptide-MHC binding, purified MHC/competitive/fluorescence; filed as Kd, often an IC50 or EC50 that approximates it; ≥ and ≤ were set here for values at or beyond the usual limits of such assays; settings: source organism: Orthohantavirus negraense
HLA-B*15:17 [7] = assay: as above; settings: source organism: Orthohantavirus negraense
HLA-A*02:01 [8] = assay: as above; settings: source organism: Orthohantavirus negraense
HLA-A*26:01 [9] = assay: as above
HLA-B*27:03 = assay: as above; settings: source organism: Orthohantavirus negraense
HLA-A*03:01 [10] = assay: as above
HLA-B*57:01 [11] = assay: as above; settings: source organism: Orthohantavirus negraense
HLA-B*15:01 [12] = assay: as above
HLA-B*39:01 = assay: as above; settings: source organism: Orthohantavirus negraense
HLA-B*46:01 [13] = assay: as above
HLA-A*69:01 = assay: as above; settings: source organism: Orthohantavirus negraense
HLA-B*51:01 = assay: as above; settings: source organism: Orthohantavirus negraense
HLA-B*57:01 [14] = assay: IEDB peptide-MHC binding, purified MHC/direct/fluorescence; filed as Kd, often an IC50 or EC50 that approximates it; ≥ and ≤ were set here for values at or beyond the usual limits of such assays
HLA-B*58:01 [15] = assay: IEDB peptide-MHC binding, purified MHC/competitive/fluorescence; filed as Kd, often an IC50 or EC50 that approximates it; ≥ and ≤ were set here for values at or beyond the usual limits of such assays
HLA-A*01:01 = assay: as above
HLA-B*18:01 [16] = assay: IEDB peptide-MHC binding, purified MHC/direct/fluorescence; filed as Kd, often an IC50 or EC50 that approximates it; ≥ and ≤ were set here for values at or beyond the usual limits of such assays; settings: source organism: Shigella sonnei Ss046
HLA-B*15:17 [17] = assay: as above; settings: source organism: Shigella sonnei Ss046
HLA-B*40:01 = assay: as above; settings: source organism: Shigella sonnei Ss046
HLA-A*02:01 [18] = assay: as above; settings: source organism: Shigella sonnei Ss046
HLA-B*27:05 = assay: as above; settings: source organism: Shigella sonnei Ss046
HLA-A*03:01 [19] = assay: as above; settings: source organism: Shigella sonnei Ss046
HLA-A*11:01 = assay: as above; settings: source organism: Shigella sonnei Ss046
HLA-B*15:01 [20] = assay: as above; settings: source organism: Shigella sonnei Ss046
HLA-B*58:01 [21] = assay: as above; settings: source organism: Shigella sonnei Ss046
HLA-B*07:02 = assay: as above; settings: source organism: Shigella sonnei Ss046
HLA-B*46:01 [22] = assay: as above; settings: source organism: Shigella sonnei Ss046
HLA-B*48:01 = assay: as above; settings: source organism: Shigella sonnei Ss046
HLA-A*31:01 = assay: as above; settings: source organism: Shigella sonnei Ss046
HLA-A*68:02 [23] = assay: as above; settings: source organism: Shigella sonnei Ss046
HLA-A*32:01 = assay: IEDB peptide-MHC binding, purified MHC/competitive/radioactivity; filed as Kd, often an IC50 or EC50 that approximates it; ≥ and ≤ were set here for values at or beyond the usual limits of such assays; settings: source organism: Dengue virus 2 Peru/IQT2913/1996
HLA-B*35:01 = assay: as above; settings: source organism: Dengue virus 3 Martinique/1243/1999
[24] = source organism: Dengue virus 2 Jamaica/1409/1983
[25] = source organism: Dengue virus 4 Philippines/H241/1956
[26] = source organism: Orthohantavirus negraense
[27] = source organism: Francisella tularensis subsp. tularensis FSC198
[28] = source organism: Salmonella enterica subsp. enterica serovar Typhi
[29] = source organism: Dengue virus 3 China/80-2/1980
[30] = source organism: Dengue virus 3 Martinique/1243/1999
[31] = source organism: Dengue virus 2 Thailand/NGS-C/1944
[32] = source organism: Dengue virus 2 Peru/IQT2913/1996
[33] = source organism: Dengue virus 4 Dominica/814669/1981
[34] = source organism: Escherichia coli 536

WTMKILIGV
Kd (HLA-A*02:01 [1]; [24]): 22.5 nM
Kd (HLA-A*26:01 [2]): 5360 nM
Kd (HLA-A*02:17; [24]): 6060 nM
Kd (HLA-A*02:06; [24]): 17.7 nM
Kd (HLA-A*68:02 [3]; [24]): 8.95 nM

TLMLVALLGA
Kd (HLA-A*02:01 [1]; [25]): 5.42 nM
Kd (HLA-A*02:17; [25]): 11000 nM
Kd (HLA-A*02:06; [25]): 378 nM
Kd (HLA-A*02:03 [4]; [25]): 14.4 nM

SLLFREVWK
Kd (HLA-A*02:19): ≥ 20000 nM
Kd (HLA-A*24:03): ≥ 20000 nM
Kd (HLA-A*02:12): ≥ 20000 nM
Kd (HLA-A*29:02): ≥ 20000 nM
Kd (HLA-A*02:03 [5]): ≥ 20000 nM
Kd (HLA-A*02:16): ≥ 20000 nM
Kd (HLA-B*18:01 [6]): ≥ 20000 nM
Kd (HLA-B*15:17 [7]): ≥ 20000 nM
Kd (HLA-A*02:01 [8]): ≥ 20000 nM
Kd (HLA-A*26:01 [9]; [26]): ≥ 20000 nM
Kd (HLA-B*27:03): ≥ 20000 nM
Kd (HLA-A*03:01 [10]; [26]): 37.4 nM
Kd (HLA-B*57:01 [11]): ≥ 20000 nM
Kd (HLA-B*15:01 [12]; [26]): ≥ 20000 nM
Kd (HLA-B*39:01): ≥ 20000 nM
Kd (HLA-B*46:01 [13]; [26]): ≥ 20000 nM
Kd (HLA-A*69:01): ≥ 20000 nM
Kd (HLA-B*51:01): ≥ 20000 nM

ISTHIGFSF
Kd (HLA-B*57:01 [14]; source organism: Francisella tularensis subsp. holarctica LVS): 125 nM
Kd (HLA-B*58:01 [15]; [27]): 1.5 nM
Kd (HLA-B*46:01 [13]; [27]): ≥ 20000 nM

WVAGVQLLY
Kd (HLA-A*03:01 [10]; [28]): 486 nM
Kd (HLA-A*01:01; [28]): 39 nM

FTMGVLCLA
Kd (HLA-A*02:01 [1]; [29]): 12.3 nM
Kd (HLA-A*02:17; [29]): 6740 nM
Kd (HLA-A*02:06; [30]): 3.17 nM
Kd (HLA-A*02:03 [4]; [30]): 28.7 nM
Kd (HLA-A*68:02 [3]; [30]): 12.5 nM

VLDMGDPVK
Kd (HLA-B*18:01 [16]): ≥ 20000 nM
Kd (HLA-B*15:17 [17]): ≥ 20000 nM
Kd (HLA-B*40:01): ≥ 20000 nM
Kd (HLA-A*02:01 [18]): ≥ 20000 nM
Kd (HLA-B*27:05): ≥ 20000 nM
Kd (HLA-A*03:01 [19]): 2090 nM
Kd (HLA-A*11:01): 7000 nM
Kd (HLA-B*57:01 [14]; source organism: Shigella sonnei Ss046): ≥ 20000 nM
Kd (HLA-B*15:01 [20]): ≥ 20000 nM
Kd (HLA-B*58:01 [21]): ≥ 20000 nM
Kd (HLA-B*07:02): ≥ 20000 nM
Kd (HLA-B*46:01 [22]): ≥ 20000 nM
Kd (HLA-B*48:01): ≥ 20000 nM
Kd (HLA-A*31:01): ≥ 20000 nM
Kd (HLA-A*68:02 [23]): ≥ 20000 nM
Kd (HLA-A*01:01; source organism: Paraglaciecola sp. T6c): 2590 nM

GLFPVSIPI
Kd (HLA-A*02:01 [1]; [31]): 2.13 nM
Kd (HLA-A*02:17; [31]): 69.9 nM
Kd (HLA-A*32:01): 6.47 nM
Kd (HLA-A*02:03 [4]; [32]): 4.32 nM

SLSVSLVLV
Kd (HLA-A*02:01 [1]; [24]): 58.5 nM
Kd (HLA-A*02:17; [24]): 4450 nM
Kd (HLA-A*02:03 [4]; [24]): 1.86 nM

GVLIGGLEW
Kd (HLA-B*58:01 [15]; source organism: Influenza A virus (A/parakeet/Narita/92A/98(H9N2))): 552 nM

KMSPGYVLGV
Kd (HLA-A*02:01 [1]; [33]): 4.44 nM
Kd (HLA-A*02:17; [33]): 324 nM
Kd (HLA-A*02:06; [33]): 70.4 nM
Kd (HLA-A*02:03 [4]; [33]): 0.57 nM

VLLLVTHYAI
Kd (HLA-A*02:01 [1]; [29]): 219 nM
Kd (HLA-A*02:17; [29]): 561 nM

AVASLLDEY
Kd (HLA-A*26:01 [9]; [34]): 871 nM
Kd (HLA-B*15:01 [12]; [34]): 96.2 nM
Kd (HLA-A*01:01; [34]): 720 nM

LLVISGLFPV
Kd (HLA-A*02:17; [31]): 45.5 nM
Kd (HLA-A*02:06; [32]): 1.13 nM
Kd (HLA-A*02:03 [4]; [32]): 4.84 nM

TLLCLIPTA
Kd (HLA-A*02:01 [1]; [25]): 5.77 nM
Kd (HLA-A*02:17; [25]): 9560 nM

SLLFKTEDGV
Kd (HLA-A*02:01 [1]; [24]): 67.4 nM
Kd (HLA-A*02:17; [24]): 719 nM

MLWMAEIPL
Kd (HLA-A*02:01 [1]; [30]): 4.11 nM
Kd (HLA-A*02:17; [30]): 9.18 nM
Kd (HLA-B*35:01): 408 nM

KSLIISFAF
Kd (HLA-B*58:01 [15]; source organism: Bacillus anthracis str. A0488): 391 nM
